According to patent publication US20230031980A1 (SHANGHAI NINTH PEOPLE S HOSPITAL SHANGHAI JIAO TONG …, published 2023):
Residue numbers refer to the chain shown, from its start. In names and notes the source's numbering stands.

B1: INTS6I3BD (INTS3-binding domain of INTS6, residues 803-887) (other)
chain: RSHEEVNTELKAQIMKEIRKPGRKYERIFTLLKHVQGSLQTRLIFLQNVIKEASRFKKRMLIEQLENFLDEIHRRANQINHINSN
notes: It was cloned in pGEX-6P-1 and purified as the INTS3CTD-INTS6I3BD complex; also called INTS6803-887; small domain at the C-terminus of INTS6
B2: His-SAGE1-Flag (WT SAGE1) (other, not shown: small tags and cut ends)
chain: MQASPLQTSQPTPPEELHAAAYVFTNDGQQMRSDEVNLVATGHQSKKKHSRKSKRHSSSKRRKSMSSWLDKQEDAAVTHSICEERINNGQPVADNVLSTAPPWPDATIAHNIREERMENGQSRTDKVLSTAPPQLVHMAAAGIPSMSTRDLHSTVTHNIREERMENGQPQPDNVLSTGPTGLINMAATPIPAMSARDLYATVTHNVCEQKMENVQPAPDNVLLTLRPRRINMTDTGISPMSTRDPYATITYNVPEEKMEKGQPQPDNILSTASTGLINVAGAGTPAISTNGLYSTVPHNVCEEKMENDQPQPNNVLSTVQPVIIYLTATGIPGMNTRDQYATITHNVCEERVVNNQPLPSNALSTVLPGLAYLATADMPAMSTRDQHATIIHNLREEKKDNSQPTPDNVLSAVTPELINLAGAGIPPMSTRDQYATVNHHVHEARMENGQRKQDNVLSNVLSGLINMAGASIPAMSSRDLYATITHSVREEKMESGKPQTDKVISNDAPQLGHMAAGGIPSMSTKDLYATVTQNVHEERMENNQPQPSYDLSTVLPGLTYLTVAGIPAMSTRDQYATVTHNVHEEKIKNGQAASDNVFSTVPPAFINMAATGVSSMSTRDQYAAVTHNIREEKINNSQPAPGNILSTAPPWLRHMAAAGISSTITRDLYVTATHSVHEEKMTNGQQAPDNSLSTVPPGCINLSGAGISCRSTRDLYATVIHDIQEEEMENDQTPPDGFLSNSDSPELINMTGHCMPPNALDSFSHDFTSLSKDELLYKPDSNEFAVGTKNYSVSAGDPPVTVMSLVETVPNTPQISPAMAKKINDDIKYQLMKEVRRFGQNYERIFILLEEVQGSMKVKRQFVEFTIKEAARFKKVVLIQQLEKALKEIDSHCHLRKVKHMRKR
notes: also called wild type SAGE1
B3: SAGE1mut (R872A, F873A, K874A, M832A, F838A and Q840A) (other, not shown: small tags and cut ends)
chain: B2 chain with M832A, F838A, Q840A, R872A, F873A, K874A
notes: Derived from the WT SAGE1 plasmid by site-directed mutagenesis; also called mutant SAGE1; Mutant SAGE1
B4: SAGE1ΔI3BD (deletion mutant of SAGE1 lacking the I3BD domain) (other)
chain: MQASPLQTSQPTPPEELHAAAYVFTNDGQQMRSDEVNLVATGHQSKKKHSRKSKRHSSSKRRKSMSSWLDKQEDAAVTHSICEERINNGQPVADNVLSTAPPWPDATIAHNIREERMENGQSRTDKVLSTAPPQLVHMAAAGIPSMSTRDLHSTVTHNIREERMENGQPQPDNVLSTGPTGLINMAATPIPAMSARDLYATVTHNVCEQKMENVQPAPDNVLLTLRPRRINMTDTGISPMSTRDPYATITYNVPEEKMEKGQPQPDNILSTASTGLINVAGAGTPAISTNGLYSTVPHNVCEEKMENDQPQPNNVLSTVQPVIIYLTATGIPGMNTRDQYATITHNVCEERVVNNQPLPSNALSTVLPGLAYLATADMPAMSTRDQHATIIHNLREEKKDNSQPTPDNVLSAVTPELINLAGAGIPPMSTRDQYATVNHHVHEARMENGQRKQDNVLSNVLSGLINMAGASIPAMSSRDLYATITHSVREEKMESGKPQTDKVISNDAPQLGHMAAGGIPSMSTKDLYATVTQNVHEERMENNQPQPSYDLSTVLPGLTYLTVAGIPAMSTRDQYATVTHNVHEEKIKNGQAASDNVFSTVPPAFINMAATGVSSMSTRDQYAAVTHNIREEKINNSQPAPGNILSTAPPWLRHMAAAGISSTITRDLYVTATHSVHEEKMTNGQQAPDNSLSTVPPGCINLSGAGISCRSTRDLYATVIHDIQEEEMENDQTPPDGFLSNSDSPELINMTGHCMPPNALDSFSHDFTSLSKDELLYKPDSNEFAVGTKNYSVSAGDPPVTVMSLVETVPNTPQISP
notes: also called SAGE1DI3BD
B5: SAGE1I3BD (INTS3-binding domain of SAGE1, residues 818-904) (other)
chain: AMAKKINDDIKYQLMKEVRRFGQNYERIFILLEEVQGSMKVKRQFVEFTIKEAARFKKVVLIQQLEKALKEIDSHCHLRKVKHMRKR
notes: Expressed in E. coli with a His-SUMO or GST tag; also called SAGE1818-904; small C-terminal region of SAGE1
B6: INTS3CTD (C-terminal domain of INTS3, residues 572-978) (other)
chain: DQLDESLRDKVLQLQKGSDTEAQCEVMQEIVDQVLEEDFDSEQLSVLASCLQELFKAHFRGEVLPEEITEESLEESVGKPLYLIFRNLCQMQEDNSSFSLLLDLLSELYQKQPKIGYHLLYYLRASKAAAGKMNLYESFAQATQLGDLHTCLMMDMKACQEDDVRLLCHLTPSIYTEFPDETLRSGELLNMIVAVIDSAQLQELVCHVMMGNLVMFRKDSVLNILIQSLDWETFEQYCAWQLFLAHNIPLETIIPILQHLKYKEHPEALSCLLLQLRREKPSEEMVKMVLSRPCHPDDQFTTSILRHWCMKHDELLAEHIKSLLIKNNSLPRKRQSLRSSSSKLAQLTLEQILEHLDNLRLNLTNTKQNFFSQTPILQALQHVQASCDEAHKMKFSDLFSLAEEYED
notes: also called INTS3CTD dimer

Key:
[1] = molecular target: B6; test: purification of the complex, size-exclusion chromatography (FIG. 8B)
His-INTS3-Strep [2] = molecular target: T1, His-INTS3-Strep (human, UniProt Q68E01 2-1043); test: co-IP in transfected HEK-293T cells (FIG. 6C)
T1 construct: also called INTS3 (co-IP construct)
Experimental: (§1) After 48 hours, cells were lysed in IP buffer containing 50 mM Tris-HCl pH 7.5, 150 mM NaCl, 0.1% Triton-X100, 1 mM EDTA and 1×Roche protease inhibitor. The supernatants were incubated overnight with mouse anti-His monoclonal antibody (Proteintech #66005-1-Ig), or rabbit anti-FLAG polyclonal antibody (Proteintech #20543-1-AP).
(§2) Then, protein A/G agarose beads (Millipore, #[…]02) were added and rotated for 2 more hours. The immunoprecipitated complexes were subjected to SDS-PAGE, followed by Western blot and/or MS analyses.

His-INTS3-Strep [3] = molecular target: T1, His-INTS3-Strep; test: co-IP
Experimental: as §1, §2

[4] = molecular target: B6; test: ITC (MicroCal iTC200, 16 °C, single-site model, two independent experiments)
Experimental: The equilibrium dissociation constant of the SAGE1I3BD-INTS3CTD interaction was determined using a MicroCal iTC200 calorimeter (Malvern). The binding enthalpy was measured at 16° C. in 25 mM Tris-HCl pH 8.0, 150 mM NaCl and 5 mM MgCl2. Two independent experiments were performed. ITC data were subsequently analyzed and fitted using Origin 7 software (OriginLab).
All statistical tests of experimental results were performed using the GraphPad Prism 7 unless noted. The statistical significance was calculated via unpaired two-tailed Student's t test. The dissociation constants (Kd) in ITC experiments were calculated using the Origin 7 software as mean±standard error from two independent experiments with a single site-specific binding model. The statistical analysis of in vivo experiments data was performed using nonparametric Mann-Whitney test. Results were represented as mean±standard deviation unless noted and p<0.05 was considered statistically significant.

[5] = molecular target: the molecule itself; test: homodimerisation of two INTS3CTD protomers; crystal structure (2.3 Å) and calibrated size-exclusion chromatography

T1 sequence (Q68E01 2-1043): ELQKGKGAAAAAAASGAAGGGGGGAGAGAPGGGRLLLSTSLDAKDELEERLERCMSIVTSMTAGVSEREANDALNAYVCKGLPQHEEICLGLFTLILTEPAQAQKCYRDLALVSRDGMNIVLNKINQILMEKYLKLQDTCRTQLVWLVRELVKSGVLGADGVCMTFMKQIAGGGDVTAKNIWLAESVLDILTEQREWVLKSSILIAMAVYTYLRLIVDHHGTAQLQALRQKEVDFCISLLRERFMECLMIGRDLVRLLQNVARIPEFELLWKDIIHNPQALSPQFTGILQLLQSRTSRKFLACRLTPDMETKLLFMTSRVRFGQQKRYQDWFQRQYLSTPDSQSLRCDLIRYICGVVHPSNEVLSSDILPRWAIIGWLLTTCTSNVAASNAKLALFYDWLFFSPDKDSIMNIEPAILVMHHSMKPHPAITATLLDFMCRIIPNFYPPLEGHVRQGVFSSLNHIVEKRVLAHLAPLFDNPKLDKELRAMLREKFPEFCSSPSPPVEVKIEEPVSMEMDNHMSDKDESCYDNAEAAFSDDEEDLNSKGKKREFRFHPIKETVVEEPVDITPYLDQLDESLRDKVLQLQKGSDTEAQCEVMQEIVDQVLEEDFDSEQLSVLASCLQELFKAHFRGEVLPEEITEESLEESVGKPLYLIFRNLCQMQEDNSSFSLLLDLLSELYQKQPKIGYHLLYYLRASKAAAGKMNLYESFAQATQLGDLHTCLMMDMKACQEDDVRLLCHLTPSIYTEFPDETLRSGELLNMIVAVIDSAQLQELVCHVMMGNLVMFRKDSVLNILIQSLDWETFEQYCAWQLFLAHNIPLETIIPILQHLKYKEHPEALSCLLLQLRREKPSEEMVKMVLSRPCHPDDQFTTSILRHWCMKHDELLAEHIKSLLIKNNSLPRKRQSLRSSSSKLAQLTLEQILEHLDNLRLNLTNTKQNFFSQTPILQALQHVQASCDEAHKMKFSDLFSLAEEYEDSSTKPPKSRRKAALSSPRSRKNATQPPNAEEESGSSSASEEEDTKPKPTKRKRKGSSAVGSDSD

B1: binds [1].

B2: binds (His-INTS3-Strep [2]).

B3: no binding (His-INTS3-Strep [3]).

B4: no binding (His-INTS3-Strep [3]).

For B5, the Kd [4] was about 39 nM.

B6: binds [5].
